Where two headings read alike, the source gives them in different places. Each block holds one binder with its values, some of them ahead of it.
Key:
[1] = target: T1, APC8401-AA; assay: two-hybrid library CCmax;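 further: natural log of median RNA to DNA barcode read ratio; higher means stronger binding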
T1 chain: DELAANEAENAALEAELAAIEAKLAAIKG

[2] = target: T2, APC9182-AA; assay: two-hybrid library CCmax; conditions: mean of both orientations;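 further: natural log of median RNA to DNA barcode read ratio; higher means stronger binding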
T2 chain: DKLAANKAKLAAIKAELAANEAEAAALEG

[3] = target: T3, APC8516-AA; assay: two-hybrid library CCmax; conditions: mean of both orientations;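 further: natural log of median RNA to DNA barcode read ratio; higher means stronger binding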
T3 chain: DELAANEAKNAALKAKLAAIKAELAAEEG

[4] = target: T4, APC9291-AA; assay: two-hybrid library CCmax; conditions: mean of both orientations;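 further: natural log of median RNA to DNA barcode read ratio; higher means stronger binding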
T4 chain: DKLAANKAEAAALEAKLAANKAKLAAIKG

[5] = target: T5, APC9806-AA; assay: two-hybrid library CCmax; conditions: mean of both orientations
T5 chain: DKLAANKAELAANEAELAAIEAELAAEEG

[6] = target: T6, APC9141-AA; assay: two-hybrid library CCmax; conditions: mean of both orientations
T6 chain: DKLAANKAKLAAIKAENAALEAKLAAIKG

[7] = target: T7, 4H63-AA; assay: two-hybrid library CCmax; conditions: mean of both orientations
T7 chain: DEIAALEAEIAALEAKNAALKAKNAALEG

[8] = target: T8, 4H446-AA; assay: two-hybrid library CCmax; conditions: mean of both orientations
T8 chain: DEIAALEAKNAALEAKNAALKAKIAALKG

[9] = target: T9, 4H432-AA; assay: two-hybrid library CCmax; conditions: mean of both orientations
T9 chain: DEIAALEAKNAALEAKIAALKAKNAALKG

[10] = target: T10, 4H483-AA; assay: two-hybrid library CCmax; conditions: mean of both orientations
T10 chain: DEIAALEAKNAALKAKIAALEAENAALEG

[11] = target: T11, 4H3974-AA; assay: two-hybrid library CCmax; conditions: mean of both orientations
T11 chain: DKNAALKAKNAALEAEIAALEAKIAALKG

[12] = target: T12, 4H464-AA; assay: two-hybrid library CCmax; conditions: mean of both orientations
T12 chain: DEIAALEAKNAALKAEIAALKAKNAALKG

[13] = target: T13, 4H3915-AA; assay: two-hybrid library CCmax; conditions: mean of both orientations
T13 chain: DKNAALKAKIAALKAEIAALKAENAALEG

[14] = target: T14, 4H3939-AA; assay: two-hybrid library CCmax; conditions: mean of both orientations
T14 chain: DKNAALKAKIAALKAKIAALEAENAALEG

[15] = target: T15, 4H380-AA; assay: two-hybrid library CCmax
T15 chain: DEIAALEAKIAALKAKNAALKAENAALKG

[16] = target: T16, 4H3969-AA; assay: two-hybrid library CCmax; conditions: mean of both orientations
T16 chain: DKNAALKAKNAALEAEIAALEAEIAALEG

[17] = target: T17, 4H72-bA; assay: two-hybrid library CCNG1
T17 chain: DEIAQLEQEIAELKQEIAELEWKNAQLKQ

[18] = target: T18, 4H953-bH; assay: two-hybrid library CCNG1
T18 chain: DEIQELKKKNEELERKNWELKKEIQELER

[19] = target: T19, 4H953-bA; assay: two-hybrid library CCNG1
T19 chain: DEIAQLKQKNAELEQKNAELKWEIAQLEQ

[20] = target: T20, 4H918-bA; assay: two-hybrid library CCNG1
T20 chain: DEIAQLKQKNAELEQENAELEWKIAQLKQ

[21] = target: T21, 4H797-bA; assay: two-hybrid library CCNG1
T21 chain: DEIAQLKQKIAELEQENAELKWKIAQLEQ

[22] = target: T22, 4H754-bA; assay: two-hybrid library CCNG1
T22 chain: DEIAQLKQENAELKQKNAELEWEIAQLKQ

[23] = target: T23, 4H717-bA; assay: two-hybrid library CCNG1
T23 chain: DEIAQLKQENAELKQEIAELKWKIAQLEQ

[24] = target: T24, 4H967-bA; assay: two-hybrid library CCNG1
T24 chain: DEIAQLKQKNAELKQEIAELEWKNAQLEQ

[25] = target: T25, 4H607-bA; assay: two-hybrid library CCNG1
T25 chain: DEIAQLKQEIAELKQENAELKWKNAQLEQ

[26] = target: T26, 4H687-bA; assay: two-hybrid library CCNG1
T26 chain: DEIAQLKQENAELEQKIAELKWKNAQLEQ

[27] = target: T27, 4H883-bA; assay: two-hybrid library CCNG1
T27 chain: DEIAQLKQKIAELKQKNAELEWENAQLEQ

[28] = target: T28, 4H908-bA; assay: two-hybrid library CCNG1
T28 chain: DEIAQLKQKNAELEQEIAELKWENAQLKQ

[29] = target: T29, 4H452-AA; assay: two-hybrid library CCmax
T29 chain: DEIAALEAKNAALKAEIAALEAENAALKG

[30] = target: T30, 4H_APH; assay: two-hybrid library CCmax
T30 chain: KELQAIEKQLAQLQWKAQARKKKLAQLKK

[31] = target: T31, 4H_BCR; assay: two-hybrid library CCmax; conditions: mean of both orientations
T31 chain: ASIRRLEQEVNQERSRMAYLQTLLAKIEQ

[32] = target: T32, 4H56-AA; assay: two-hybrid library CCmax; conditions: mean of both orientations
T32 chain: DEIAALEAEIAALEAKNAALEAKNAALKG

[33] = target: 4H_GCN4; assay: two-hybrid library CCmax
Sequence of 4H_GCN4 (chain, as listed by the source): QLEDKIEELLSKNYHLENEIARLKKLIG

[34] = target: GCN2_T; assay: two-hybrid library CCmax
[35] = target: T33, 4H3629-AA; assay: two-hybrid library CCmax
T33 chain: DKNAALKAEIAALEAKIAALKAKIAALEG

[36] = target: T34, 4H3782-AA; assay: two-hybrid library CCmax; conditions: mean of both orientations
T34 chain: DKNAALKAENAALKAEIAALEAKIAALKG

[37] = target: T35, 4H3777-AA; assay: two-hybrid library CCmax; conditions: mean of both orientations
T35 chain: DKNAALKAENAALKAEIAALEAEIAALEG

[38] = target: T36, 4H967-bH; assay: two-hybrid library CCNG1
T36 chain: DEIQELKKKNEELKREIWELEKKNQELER

[39] = target: T37, 4H968-bH; assay: two-hybrid library CCNG1
T37 chain: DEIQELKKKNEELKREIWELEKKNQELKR

interaction score [1]: -1.51
interaction score [2]: -1.43
interaction score [3]: -1.57
interaction score [4]: -1.42
interaction score [5]: -1.46
interaction score [6]: -1.49
Binder: DELAANEAENAALEAELAAIEAKLAAIKG [APC8401-AA]

interaction score [7]: -0.855
interaction score [8]: -1.43
interaction score [9]: -1.71
interaction score [10]: -1.15
interaction score [11]: -0.717
interaction score [12]: -1.6
interaction score [13]: 0.315
interaction score [14]: 0.0894
interaction score [15]: -0.176
interaction score [16]: -1.28
Binder: DEIAALEAKIAALKAKNAALKAENAALKG [4H380-AA]

interaction score [17]: -0.746
interaction score [18]: -1.41
interaction score [19]: -0.667
interaction score [20]: -1.07
interaction score [21]: -0.394
interaction score [22]: -0.503
interaction score [23]: -0.469
interaction score [24]: -1.29
interaction score [25]: 0.454
interaction score [26]: -0.84
interaction score [27]: -1.28
interaction score [28]: -0.62
Binder: DEIAQLKQEIAELKQENAELKWKNAQLEQ [4H607-bA]

interaction score [29]: -0.395
interaction score [30]: -1.91
interaction score [31]: -1.94
interaction score [32]: -1.4
interaction score [33]: -0.935
interaction score [34]: -0.726
Binder: DEIAALEAKNAALKAEIAALEAENAALKG [4H452-AA]

interaction score [7]: -0.266
interaction score [8]: -1.96
interaction score [9]: -2.37
interaction score [10]: -1.87
interaction score [11]: 0.236
interaction score [12]: -1.75
interaction score [35]: 1.82
interaction score [13]: -0.761
interaction score [36]: -0.119
interaction score [14]: -0.964
interaction score ([15]; mean of both orientations): -1.46
interaction score [37]: -0.576
interaction score [16]: -1.01
Binder: DKNAALKAEIAALEAKIAALKAKIAALEG [4H3629-AA]

interaction score [18]: -0.129
interaction score [38]: -0.919
interaction score [39]: -1.63
Binder: DEIQELKKKNEELERKNWELKKEIQELER [4H953-bH]

— paper PMC10397247
